Assay [1] has as its target T1, Bee Hyaluronidase (Apis mellifera (honeybee)).
T1 construct: also called the main allergen in bee venom
Put plainly: SPR; ProteOn XPR36 (Bio-Rad), GLC chip; IgG captured on amine-coupled anti-human capture antibody (Human Antibody Capture Kit), antigen as analyte; 1x HBS-EP+ pH 7.4 with BSA 1 mg/ml; equilibrium or kinetic Langmuir model. To be noted: both partners purified.

Assay [2] deals with T1, Bee Hyaluronidase. Description: SPR; Biacore 4000, CM5 chip; IgG captured on amine-coupled anti-human capture antibody (Human Antibody Capture Kit), antigen as analyte; 1x HBS-EP+ pH 7.4 with BSA 1 mg/ml; equilibrium or kinetic Langmuir model; apparent KD. To be noted: both partners purified. (In general: SPR reads the build-up and loss of mass on a sensor chip optically.)

Positions count from the first letter of the chain named. Names may count otherwise.

T1 sequence (heavy, as listed by the source): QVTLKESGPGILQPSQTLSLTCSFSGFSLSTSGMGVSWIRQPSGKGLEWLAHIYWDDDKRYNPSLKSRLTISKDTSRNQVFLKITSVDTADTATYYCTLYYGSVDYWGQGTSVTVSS

B1: WT 2J88 antibody (antibody, V domains shown)
VH: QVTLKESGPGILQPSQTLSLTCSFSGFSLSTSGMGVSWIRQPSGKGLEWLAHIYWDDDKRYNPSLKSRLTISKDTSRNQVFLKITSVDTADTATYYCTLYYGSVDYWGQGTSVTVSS
VL: DIQMTQSPASLSASVGETVTITCRASENIYSYLTWYQQKQGKSPQLLVYNAKTLAEGVPSRFSGSGSGTQFSLKISSLQPEDFGNYYCQHHYGTRTFGGGTRLEIK
notes: heavy-chain variable domain of the antibody in PDB 2J88; human IgG1 heavy constant region, from the vector pFUSEss-CHIg-hG1; light-chain variable domain of the antibody in PDB 2J88; human kappa constant region, from the vector pFUSEss-CLIg-hk; the abstract says one lambda and one kappa antibody were tested; Expressed as IgG (human IgG1 constant regions from pFUSE vectors) with the variable …
B1 had a Kd in assay [1] of 9.2 nM.

B2: L14_7 (antibody, V domains shown)
VH: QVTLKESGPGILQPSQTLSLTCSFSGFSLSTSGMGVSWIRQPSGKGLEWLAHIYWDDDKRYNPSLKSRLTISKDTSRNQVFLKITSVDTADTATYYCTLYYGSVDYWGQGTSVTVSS
VL: B1 VL with A25S, E27R, N28D, Y30K, S31D, L33I, Q70E
notes: as the heavy-chain variable domain of m1 (PDB 2J88); human IgG1 heavy constant region, from the vector pFUSEss-CHIg-hG1; as the light-chain variable domain of m1 (PDB 2J88) with a designed L1 (cluster L1-11-2, six amino acid differences) and one difference in the L4 (DE) loop; human kappa constant region, from the vector pFUSEss-CLIg-hk; kappa inferred as for m1; IgG; Computational design (RAbD) …
Consider B2, for which, in assay [1], the Kd turned out to be 0.77 nM.

B3: WT 2J88 antibody Y38K (antibody, V domains shown)
VH: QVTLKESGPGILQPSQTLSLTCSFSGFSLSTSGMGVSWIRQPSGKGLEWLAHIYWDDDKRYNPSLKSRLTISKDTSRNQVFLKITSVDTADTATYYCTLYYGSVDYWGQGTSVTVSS
VL: B1 VL with Y30K
notes: as the heavy-chain variable domain of m1 (PDB 2J88); human IgG1 heavy constant region, from the vector pFUSEss-CHIg-hG1; as the light-chain variable domain of m1 (PDB 2J88) with Y38K in L1; human kappa constant region, from the vector pFUSEss-CLIg-hk; kappa inferred as for m1; IgG; Position 38 is most likely AHo numbering; source: 293F cells, transfected (pFUSE vectors), purified (rProtein A …)
On to B3, for which the Kd in assay [2] was 4.3 nM.

The record behind these values is PMC5942852 (PLoS Computational Biology, 2018).
